The data set deals with the molecule itself. The data set is described as follows: crystal structure.

B1: P2 Cox protein of bacteriophage P2 (natural protein, UniProt P07695 1-91, looked up)
chain: MSKQVTLMTDAIPYQEFAKLIGKSTGAVRRMIDKGKLPVIDMTDPQSASGRAGEYWVYLPAWNNGLKLAYESRPKEIRDGWLMWLGLGEPR
Regarding B1, the binding result was “binds”.

Values taken from PMC3936717 (Nucleic Acids Research, 2013).
